Measured values from patent US20200407456A1 (published 2020).

Molecular target: recombinant human CD137-ECD-Fc (APBio Inc.) (human, UniProt Q07011 24-186)
Test: ELISA

recombinant human CD137-ECD-Fc (APBio Inc.), sequence (Q07011 24-186): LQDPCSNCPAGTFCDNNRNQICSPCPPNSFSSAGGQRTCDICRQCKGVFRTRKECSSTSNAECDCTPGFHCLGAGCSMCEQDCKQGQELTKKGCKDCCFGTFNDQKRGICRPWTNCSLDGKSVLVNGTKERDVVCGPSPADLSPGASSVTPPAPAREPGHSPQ

B1: anti-CD137 antibody clone 54 (antibody, V domains shown)
VH: QVQLVQSGAEVKKPGSTVKVSCKASGGTFSSYAISWVRQAPGQGLEWMGRIIPILGIANYAQKFQGRVTITADKSTSTAYMELSSLRSEDTAVYYCASPPYYDSSGYYPLGAFDIWGQGTMVTVSS
VL: SYELTQPPSVSVSPGQTASITCSGDKLGEKYASWYQQKAGQSPILVIYQDSKRPSGIPERFSGSNSGNTATLTISGLQAGDEADYYCQAWDGSSTYVFGTGTKVTVFG
  EC50: 0.184 nM

B2: anti-CD137 antibody clone 31 (antibody, V domains shown)
VH: not shown
VL: QSALTQPASVSGSPGQSITISCTGTSSDVGAYNFVSWYQQRPGKAPELMIYDVSDRPSGVSNRFSGSKSGNTASLTISGLQTEDEADYYCSSYTSSITRYVFGTGTKVTVLG
  EC50: 0.151 nM
